{
  "source": "patent US20210277138A1",
  "about": "(BLACK BELT THERAPEUTICS, published 2021)",
  "binders": {"B1": {"name": "aCD38-b-329 (antibody, human IgG1, V domains shown)", "VH": "QLQLQESGPGLVKPSETLSLTCTVSGGSISSSDYYWGWIRQPPGKGLEWIGSIYYSGSTYYNPSLKSRVTISVDTSKNQFSLKLSSVTAADTAVYYCARGQYSSGWYAYPFDMWGQGTMVTVSS", "VL": "EIVLTQSPGTLSLSPGERATLSCRASQSVRSSYLAWYQQKPGQAPRLLIYGASSRATGIPDRFSGSGSGTDFTLTISRLEPEDFAVYYCQQDGAVFTFGGGTKVEIK"}, "B2": {"name": "aCD38-b-329-m7 (antibody, IgG1, V domains shown)", "VH": "B1 VH", "VL": "B1 VL with G93S"}, "B3": {"name": "aCD38-b-329-m6 (antibody, IgG1, V domains shown)", "VH": "B1 VH", "VL": "B1 VL with G93E"}},
  "key": {"[1]": {"biological_target": "T1, human CD38 expressed on cells (Daudi cells, human PBMC / T cells) (human, UniProt P28907 1-300)", "T1 sequence": "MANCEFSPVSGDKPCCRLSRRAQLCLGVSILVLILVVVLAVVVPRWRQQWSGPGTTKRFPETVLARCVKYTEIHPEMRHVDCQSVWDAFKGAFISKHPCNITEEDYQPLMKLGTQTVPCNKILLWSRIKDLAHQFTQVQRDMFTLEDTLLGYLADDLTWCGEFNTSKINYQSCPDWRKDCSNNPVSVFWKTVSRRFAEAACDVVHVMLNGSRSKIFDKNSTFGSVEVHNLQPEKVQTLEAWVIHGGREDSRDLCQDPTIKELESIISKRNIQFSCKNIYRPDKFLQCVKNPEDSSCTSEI", "assay": "cell-based or functional assay"}, "[2]": {"biological_target": "T1, human CD38 expressed on cells (Daudi …)", "assay": "cell-based or functional assay", "remark": "listed apart in the source"}, "[3]": {"biological_target": "T1, human CD38 expressed on cells (Daudi …)", "assay": "flow cytometry on human PBMC, gated on CD4-positive cells, fluorescent secondary antibody [lower panel (gated on CD4-positive cells]"}, "[4]": {"biological_target": "T1, human CD38 expressed on cells (Daudi …)", "assay": "flow cytometry on human PBMC, gated on CD8-positive cells, fluorescent secondary antibody [upper panel (gated on CD8-positive cells]"}},
  "note": "Positions count from the first letter of the chain named.",
  "data": [
    {"binder": "B1", "values": [
      {"measurement": "ADCC EC50 ug/ml, target Daudi cells, experiment 1", "setting": "[1]", "result": 0.011, "unit": "µg/mL"},
      {"measurement": "ADCC EC50 ug/ml, target Daudi cells, experiment 2", "setting": "[1]", "result": 0.0062, "unit": "µg/mL"},
      {"measurement": "ADCC target lysis EC50", "setting": "[2]", "result": 6.2, "unit": "ng/mL"},
      {"measurement": "ADCC target lysis Max. % lysis", "setting": "[2]", "result": 49, "unit": "%"},
      {"measurement": "EC50 (read off the curve)", "setting": "[3]", "result": "~0.07", "unit": "nM"},
      {"measurement": "EC50 (read off the curve)", "setting": "[4]", "result": "~0.07", "unit": "nM"}
    ]},
    {"binder": "B2", "values": [
      {"measurement": "ADCC target lysis EC50", "setting": "[2]", "result": 3.5, "unit": "ng/mL"},
      {"measurement": "ADCC target lysis Max. % lysis", "setting": "[2]", "result": 43, "unit": "%"}
    ]},
    {"binder": "B3", "values": [
      {"measurement": "ADCC target lysis EC50", "setting": "[2]", "result": 2.4, "unit": "ng/mL"},
      {"measurement": "ADCC target lysis Max. % lysis", "setting": "[2]", "result": 47, "unit": "%"}
    ]}
  ]
}
